These results are taken from US20130058939A1.

This test addresses low-density lipoprotein (LDL) receptor-related protein (LRP) on bovine brain capillary endothelial cells of the in vitro BBB model (bovine). The test is described as follows: cell-based or functional assay. To be noted: for alteplase (% of passage versus filter), spectrozyme assay, in vitro BBB model: scale: % of passage versus filter for alteplase alone.

Chain of clogged Desmoteplase (cDSPA), DSPA alpha 1 inactivated with D-phenyl-prolyl-arginine chloromethyl ketone (P98119 37-477 limits assumed): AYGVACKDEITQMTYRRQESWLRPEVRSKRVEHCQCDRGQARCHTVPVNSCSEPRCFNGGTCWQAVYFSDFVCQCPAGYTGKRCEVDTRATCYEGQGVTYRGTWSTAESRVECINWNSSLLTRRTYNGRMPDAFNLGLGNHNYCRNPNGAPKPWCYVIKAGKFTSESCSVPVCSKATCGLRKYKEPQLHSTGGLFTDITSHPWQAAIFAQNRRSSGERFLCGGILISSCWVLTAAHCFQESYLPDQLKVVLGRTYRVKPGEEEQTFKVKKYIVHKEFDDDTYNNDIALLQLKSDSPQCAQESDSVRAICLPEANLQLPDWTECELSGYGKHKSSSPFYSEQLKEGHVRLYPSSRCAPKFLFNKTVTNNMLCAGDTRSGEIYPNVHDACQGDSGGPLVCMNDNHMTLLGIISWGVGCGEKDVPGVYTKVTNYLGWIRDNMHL
Chain of DSPAα1 (Desmoteplase) (P98119 37-477 limits assumed): as above
Chain of DSPA α2 (alpha 2) (P15638 37-477 limits assumed): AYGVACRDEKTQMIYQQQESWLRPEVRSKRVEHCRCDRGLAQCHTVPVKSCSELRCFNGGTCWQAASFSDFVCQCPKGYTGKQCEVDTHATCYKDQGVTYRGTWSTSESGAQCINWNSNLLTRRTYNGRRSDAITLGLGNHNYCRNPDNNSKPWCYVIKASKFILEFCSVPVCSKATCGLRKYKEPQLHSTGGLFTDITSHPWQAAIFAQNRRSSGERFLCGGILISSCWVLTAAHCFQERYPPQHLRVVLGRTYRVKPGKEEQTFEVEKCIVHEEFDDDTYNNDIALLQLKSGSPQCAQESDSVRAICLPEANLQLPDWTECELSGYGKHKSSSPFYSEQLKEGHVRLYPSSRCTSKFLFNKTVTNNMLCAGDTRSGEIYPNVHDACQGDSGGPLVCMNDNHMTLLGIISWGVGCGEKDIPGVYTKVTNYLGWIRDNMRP

As to Reteplase (Rapilysin) (enzyme), the % of abluminal alteplase (zymography assay; alteplase alone = 100), in vitro BBB model (% of abluminal alteplase alone) came to 51.6. “DSPAα1 (Desmoteplase) (from UniProt P98119 37-477) (enzyme)” gave a % of abluminal alteplase (zymography assay; alteplase alone = 100), in vitro BBB model (% of abluminal alteplase alone) of 46.6 and an alteplase (% of passage versus filter), spectrozyme assay, in vitro BBB model of 67. On to “clogged Desmoteplase (cDSPA), DSPA alpha 1 inactivated with D-phenyl-prolyl-arginine chloromethyl ketone (from UniProt P98119 37-477) (enzyme)”, for which the % of abluminal alteplase (zymography assay; alteplase alone = 100), in vitro BBB model (% of abluminal alteplase alone) turned out to be 73.3 and the alteplase (% of passage versus filter), spectrozyme assay, in vitro BBB model was 76.3. In the case of “DSPA α2 (alpha 2) (from UniProt P15638 37-477) (enzyme)”, the % of abluminal alteplase (zymography assay; alteplase alone = 100), in vitro BBB model (% of abluminal alteplase alone) is 25.1 and the alteplase (% of passage versus filter), spectrozyme assay, in vitro BBB model is 61.9.
